Measured values published in the DeepSol protein solubility set.

assay: soluble on expression in E. coli; label from the status in PepcDB or PDB records

Sequence	soluble on expression in E. coli
MRLRAILASLALALTSLGAQAETIRVAIGTQDTTINCAAGGLLIRELGLLEKYLPRDGRYKDADYRVEWKNFTSGAPLTNEMVAGKLDFGAMADFPGTFNGVAFAAAGKRSLFISVLSGSTRGSGNGIVVPSGSPVQSLAELKGQTISVPFASTAHGMLLRAVAAQGWDPQRDVTIIAQPPEIAGSALQANKIAAHADFVPFAELFPNRGFARKIYDGSQANAPTFHGALVDAAYAERYPEVVVAYLRASIEANRLLAAEPEKYSELIEKVTGIEAEVNYLFHGPLGLQTRDQAWKPEYRQALATSIDTLKLLKKADRGLDVERFVDDRYIREAYRQAGLDYQAALADYAPSPLRASDARSGRPIEEFERVAQIWVKGEARVRHYASPESALADLAELKAQGKAIRAIYAQDRDSGIKLLANQAWFVRDGEGRLNAFLLREQAQDYARRHGGEVRDFAAASQQALALR	not soluble
MGHHHHHHSHMEKSELKPAGVFHFFNEICQVPRPSKKEEKMIAYLKAFGEKHNLETKVDEAGNVLIKKPATPGKENLKTVILQSHVDMVCEKNNDTDHDFLTDPIETEIDGEWMKAKGTTLGADNGIGVATELAILADDSIEHGPIECLFTVDEETGLTGAFALKEGFMSGEILLNLDSEDEGELYIGCAGGIDTVAEFQYENEMTPISHLCFRITVKGLKGGHSGGDIHLGRGNANKILNRFLYQMMTTYQEDFHLYEFNGGNLRNAIPREASAVFSVPEHYKHDIRTALNVFTAEIENELHRVEPDLNILLETEPHRDWSIDSSTSYRLITSLYGCPHGVYAMSQDIPGLVETSTNLASVKMKPENTIRIETSQRSSILSSRDDIATTVRAVFRLAGAQVNWGEGYPGWKPNPDSEILKVAEESYKRLFGVDAKVKAIHAGLECGLFLDKYPALDMISFGPTLTGVHSPDERMHIPSVDKFWKHLLDVLAHIPAKN	soluble
MGSDKIHHHHHHMKVAIVIHDLKGGGAEKMMMRLANAISKQHHEVDLVLLTNGGTNKDLLDNGVNLIELNSLRTASSVPRLRQYLKINSPDRVLSALTHVNVITFIACLSLGWLSRLHCSERNAFSFDKDVNKSPLIKFAYFLAPFLYRISPNPVIAVSLGVALDLIETTVVCPKNVINLPNPTLNDNYKTHIFLAPSHPWLSDKTKPVIVGLGRLAQQKGFSDLINAFALVREKIDSRLIIFGEGELRIKLQTQIDNLGLTDSVSLFGYVRAPMDEVHSADVFVLSSLFEGSPNALVEAMASRCKVVSTRCPCGPDEILIQGALGILVPVKSPNKLAEAIICSLLDADYDFENQLDKIERFTANNSASAYLSAMGIHGV	not soluble
MEIDEGKYECEACGYIYEPEKGDKFAGIPPGTPFVDLSDSFMCPACRSPKNQFKSIKKVIAGFAENQKYG	soluble
MGSDKIHHHHHHMKQIDLVYRTAFAELAQRTFDAQFQADFPLEGRFVAVPVKGRNYWYFDLPTPEGKDKRRYVGPQDDVDITARVKAHRQVKDDIRERRKLVGMLLRSGGMSAPDRFAGEVTKALADAGLFRLRALLVGSVAFSCYSGLLGVRLPGTSMQTGDADFAQDFAISAEVEDSLPPILDLLRSIDSTFRAVPHQADNAKVVAFSNSVNYRVEFLTTNRGSDDYTGKPSPMPALGGASAENLRFLDFLIYEPVRTVLLHREGVSVNIPAPERYAIHKLIVASRRRTDALGRAKRDKDLVQASLLCEALVETRQSHLLADAYREAWTRGEAWQEGILSGLVLMPDNGKLALANALGVTVDRLGKA	not soluble
MQTLERFFLFVTGDQPERFEKANSSCADSVILDLENAVSSEKKIIARENALNFMSNDEKVLIAVRAKIVITSRLAGSYPSVDGITTEFMKNELTIQNAIHSCKMGFSGKVCIHPPQISHVNRAFSYLKQEIEWVPQIMRLAQYPHGAFSHEGQMVDKPLLEKAKRILAHSILEHHHHHH	not soluble
MVSRSFFLTHTFKDVSKLGEGGSYSSDIEVRHDIPWKIRIFKKEGFLGVNLHCEKEECFETKKWTFQTKFTMKLVAVSDFPVSQHDSDNSFVLKHNFKNISRLVEDERDYSDTEKHYNALWSFKIRKFNEHLGIWLICEKEIWEERRWSINLQYELKLISASGKVRSAQYTNVFGVGSLWGILKFISWNNLEKDYVTNDSIDVEVLVKIIEFTELPCTEKTFVLSHIVKNMSSIEDGWKTFSDTQTRFNIPWKLQIRRQDGFVELLLHCSKQLDESRSWSIKTEYQFKLVSTNGRSVAFYGEKVFEKPVGSGWDKLIRWENWASRCNDEFVFEASVRILNTTGIEDENDVDRFSGFAIPVEGQEYSMEKWLEMAFDH	not soluble
MGSDKIHHHHHHMKIDDIDAFVAVIRCQSISHAAESLDLTQPAITRRVQNFEQALGVELFDRNTKPLKPTPMGIQVYQKCLAILREMDSLRELVASDTPPSGLLRLGVPQTIGDVVLLDALKQLRGEFPDLRAQVSTGWGSHLIGKIENGELDAAAALFPAGKIFPDNIVGQSIGKMELVVVCAKGSVPKKPGKLADCYEQGWVLNPDGCGFRAGLQRTLTDQGLSMKVNLETFGTELQLGLVADGMGLGLVPRPLLERSAHREQLVVLPLKDFKPVMDLWLFYPRFLGNLQAPVEAFGALVARSLKPLSAAA	not soluble
MASWSHPQFEKGAETAVPNSSSVPGDPSSMTRKNVLLIVVDQWRADFIPHLMRAEGREPFLKTPNLDRLCREGLTFRNHVTTCVPGGPARASLLTGLYLMNHRAVQNTVPLDQRHLNLGKALRAIGYDPALIGYTTTTPDPRTTSARDPRFTVLGDIMDGFRSVGAFEPNMEGYFGWVAQNGFELPENREDIWLPEGEHSVPGATDKPSRIPKEFSDSTFFTERALTYLKGRDGKPFFLHLGYYRPHPPFVASAPYHAMYKAEDMPAPIRAENPDAEAAQHPLMKHYIDHIRRGSFFHGAEGSGATLDEGEIRQMRATYCGLITEIDDCLGRVFAYLDETGQWDDTLIIFTSDHGEQLGDHHLLGKIGYNAESFRIPLVIKDAGQNRHAGQIEEGFSESIDVMPTILEWLGGETPRACDGRSLLPFLAEGKPSDWRTELHYEFDFRDVFYDQPQNSVQLSQDDCSLCVIEDENYKYVHFAALPPLFFDLKADPHEFSNLAGDPAYAALVRDYAQKALSWRLSHADRTLTHYRSSPQGLTTRNH	soluble
MEMYFKRMKDEWTGLVEQADPPIRAKAAEIAVAHAHYLSIEFYRIVRIDPHAEEFLSNEQVERQLKSAMERWIINVLSAQVDDVERLIQIQHTVAEVHARIGIPVEIVEMGFRVLKKILYPVIFSSDYSAAEKLQVYHFSINSIDIAMEVMTRAFTFSDSSASKELEHHHHHH	soluble
MSVTVEQEAYEMPADNKKVMLKIEEVHLHSCGVFSNVYKGILREPYEKKIAIKKSWPEKGERNFEFIFLTGRERAKHKNVIHMIFAFSHSYDTKVCESYVFDFMPNTLAEVIRQKLTDLDIRLYTWQIFSGLKYLEEHKVVHRDLKPVNILVDHDTAFLKISDFGSAKIIVKGKANNFYQVTRFYRPPELLMKAMEYNSTVDVWSAGCIMAEMVKRHVVFPGRDSAHQLKLYCRCFGAPNEQDISAMKGEKLEKEYWKFTKGFGLQRLVNDISPDQLQFIKRILVYAPEKRLRGKQLLQDDFFRPLFKAGAVRHNGQKISDVITAADYKRAAENEESSACRLAQLVKTDNKDLGIPYCEKSNSYENVYARRSTLIPKEQKMARDNKSKEDSSDDRRVAPSSGEAPSAPGKRSESNKTAAIAKKSTMKSVMNAPPPRQKPE	not soluble
MGSDKIHHHHHHMNLRQLEYFVTLSETLSFTKTAQKFFISQTAVTKQIKLLENTLDTKLFNRNKHYVELTPAGNVFLMEAKAILLRVEEATERVHLTTIGFVGLLRIGFIKGYEKTAFSDLIFQLYNKYPNISITFFRGTESELYEKVLNSELDIVFNSVKPKNIDKTLEMKLIDKYPLKVVVHPTHPLAARKSVRFEELRGETIFKYNDGQDIEVTLLMVSANMGIAVMPSYCVRYLSQSQNLMIIAVENNNFYVDIAAVWNKENNNPALLRVLQIIKEAEQ	not soluble
MEMYFKRMKDEWTGLVEQADPPIRAKAAEIAVAHAHYLSIEFYRIVRIDPHAEEFLSNEQVERQLKSAMERWIINVLSAQVDDVERLIQIQHTVAEVHARIGIPVEIVEMGFRVLKKILYPVIFSSDYSAAEKLQVYHFSINSIDIAMEVMTRAFTFSDSLEHHHHHH	not soluble
MALEPIDYTTHSREIDAEYLKIVRGSDPDTTWLIISPNAKKEYEPESTGSSFHDFLQLFDETKVQYGLARVSPPGSDVEKIIIIGWCPDSAPLKTRASFAANFAAVANNLFKGYHVQVTARDEDDLDENELLMKISNAAGA	soluble
